What was measured:
[1] = biological target: IscU^N–GFP (E. coli K-12) (UniProt P0ACD4); assay: split reporter (BiFC, NanoBiT); BiFC by reconstitution of GFP from N-GFP and C-GFP fusions co-expressed in E. coli BL21(DE3) Gold; fluorescence microscopy of cells on agarose slides, normalised to empty vectors
[2] = biological target: IscS^C–GFP (E. coli K-12) (UniProt P0A6B7); assay: as above
Sequence of UniProt P0A6B7 (P0A6B7 whole entry): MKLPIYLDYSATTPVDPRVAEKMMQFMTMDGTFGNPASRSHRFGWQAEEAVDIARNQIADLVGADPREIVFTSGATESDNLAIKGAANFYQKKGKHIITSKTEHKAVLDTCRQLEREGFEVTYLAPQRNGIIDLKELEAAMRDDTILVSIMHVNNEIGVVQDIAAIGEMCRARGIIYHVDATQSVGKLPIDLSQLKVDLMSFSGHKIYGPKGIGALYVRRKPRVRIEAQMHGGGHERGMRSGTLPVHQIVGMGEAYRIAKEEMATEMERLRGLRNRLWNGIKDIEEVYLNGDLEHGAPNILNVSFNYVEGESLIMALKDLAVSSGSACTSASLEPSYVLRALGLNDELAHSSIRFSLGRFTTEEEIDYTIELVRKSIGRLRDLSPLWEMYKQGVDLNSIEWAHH

Sequence of UniProt P0ACD4 (P0ACD4 whole entry, the tested form may be a part): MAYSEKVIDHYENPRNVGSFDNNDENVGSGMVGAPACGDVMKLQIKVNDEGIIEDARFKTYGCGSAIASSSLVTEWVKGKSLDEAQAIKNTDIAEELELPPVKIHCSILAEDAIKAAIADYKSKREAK

fold fluorescence over the control [1]	fold fluorescence over the control [2]	Substance
3 fold		YtfE^C–GFP (from UniProt P69506 1-220) (natural protein)
	6 fold	YtfE^N–GFP (from UniProt P69506 1-220) (natural protein)
